From article PMC10531517, “Rational Design of Novel Peptidomimetics against Influenza A Virus: Biological and Computational Studies” (International Journal of Molecular Sciences, 2023)
*1 amine or outer side, *2 acyl side, *3 side chain or, on linkers, in order; H or OH if unused. Where a SMILES comes first, the peptide text is derived from it. [ ]: non-standard residue; d: D form. N(2-mercaptoethyl)Gly = O=C(CN(CCS[*:3])[*:1])[*:2]; NMeS = CN[C@@H](CO)C(=O)O

How the values were obtained:
[1] = biological target: T1, HA (H1N1 hemagglutinin, Cat No.: Z03181, GenScript) (Influenza A virus, UniProt C3W5S1); assay: biochemical; assay type: binding
T1 construct: Full-length recombinant HA (His-Tag) was immobilized; purchased GenScript Z03181-100

[2] = biological target: Full-length recombinant HA (His-Tag), H1N1 hemagglutinin, GenScript Cat No. Z03181 (influenza A virus H1N1); assay: MST; labelled His-HA (NT647-HA) held constant, compound in 16 1:1 serial dilutions from 50 µM, PBS, 10 min at rt, standard-treated capillaries, Monolith NT.115pico, 10% LED power, high MST power, triplicate
[3] = biological target: Full-length recombinant HA (His-Tag), H1N1 hemagglutinin, GenScript Cat No. Z03181 (influenza A virus H1N1); assay: SPR
A/Parma/24/09 H1N1 virus [4] = test system: A/Parma/24/09 H1N1 virus; design: method as in Scala et al. (2017) [23]; settings: read-out: IC50 (peptide concentration that inhibits virus-induced hemagglutination by 50%), reference peptides, ref Scala et al. (2017) [23]; cited from earlier work
A/Parma/24/09 H1N1 virus [5] = test system: A/Parma/24/09 H1N1 virus; design: method as in Scala et al. (2017) [23]; settings: read-out: EC50 (concentration that reduced cytopathic effect by 50%); reference peptides; ref Scala et al. (2017) [23]; cited from earlier work

T1 sequence (C3W5S1 entry or part of it, added parts left off): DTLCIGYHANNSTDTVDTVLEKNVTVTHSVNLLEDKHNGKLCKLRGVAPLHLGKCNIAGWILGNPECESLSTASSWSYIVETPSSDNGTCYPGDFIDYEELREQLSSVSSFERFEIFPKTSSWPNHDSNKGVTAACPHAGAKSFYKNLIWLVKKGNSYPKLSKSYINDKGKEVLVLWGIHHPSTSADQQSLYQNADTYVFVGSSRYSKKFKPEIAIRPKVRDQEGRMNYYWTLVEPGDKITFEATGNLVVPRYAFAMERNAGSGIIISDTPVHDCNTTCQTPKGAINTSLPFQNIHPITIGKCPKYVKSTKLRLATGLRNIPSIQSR

Compound | Kd [2] | Kd [3] | also measured
CC(=O)N[C@@H](CO)C(=O)N[C@@H](CCCCN)C(=O)N[C@@H](Cc1c[nH]cn1)C(=O)N(C)[C@@H](CO)C(N)=O [Peptide 10, SKH(N-Me)S] (Ac-SKH[NMeS]-NH2) |  |  | Kd [1]: 3040 ± 850 nM
CC(=O)N[C@@H](CO)C(=O)N[C@@H](CC(C)C)C(=O)N[C@@H](CC(=O)O)C(=O)N(CCS)CC(N)=O [Peptide 14, SLDNhC] (Ac-SLD[N(2-mercaptoethyl)Gly]-NH2) |  |  | Kd [1]: 45.9 ± 10 nM
CC(=O)N[C@@H](CO)C(=O)N[C@@H](CCCCN)C(=O)N(CC(=O)N[C@@H](CO)C(N)=O)Cc1c[nH]cn1 [Peptide 17, SKNHS] |  |  | Kd [1]: 3070 ± 790 nM
(N-Me)SKHS (peptide) | 336 nM | 4190 nM | 
(N-Me)SLDC (peptide) | 24800 nM | 7600 nM | 
NhSKHS (peptide) | 7400 nM | 2090 nM | 
NhSLDC (peptide) | 67.2 nM | 6550 nM | 
S(N-Me)KHS (peptide) | 7930 nM | 8330 nM | 
S(N-Me)LDC (peptide) | 32.5 nM | 580 nM | 
SK(N-Me)HS (peptide) | 52.8 nM | 1260 nM | 
SKH(N-Me)S (peptide) | 3040 nM |  | 
SKHNhS (peptide) | 49.1 nM | 430 nM | 
SKHS [Peptide 2] |  |  | IC50 (A/Parma/24/09 H1N1 virus [4]): 1.5 ± 0.7 nM
SKNHS (peptide) | 3070 nM |  | 
SL(N-Me)DC (peptide) | 8800 nM |  | 
SLD(N-Me)C (peptide) | 142 nM | 3800 nM | 
SLDC [Peptide 1] |  |  | IC50 (A/Parma/24/09 H1N1 virus [4]): 6 ± 3 nM; EC50 (A/Parma/24/09 H1N1 virus [5]): 0.0046 nM
SLDNhC (peptide) | 45.9 nM |  | 
SLNDC (peptide) | 1340 nM |  | 
SNKHS (peptide) | 39.1 nM | 1700 nM | 
SNLDC (peptide) | 701 nM | 3810 nM | 
